Publication PMC8514532 (2021)

Target: PopP2 (149-488), AVI-tagged and biotinylated, the 'WT' of the BLI assay (Ralstonia solanacearum, UniProt Q8Y125 149-488)
Assay: BLI

B1: WRKY DNA-binding domain of the Arabidopsis RRS1-R immune receptor (domain or fragment)
chain: SESKVKKVVSIPAIDEGDLWTWRKYGQKDILGSRFPRGYYRCAYKFTHGCKATKQVQRSETDSNMLAITYLSEHNHPRPT
Kd: 13 nM
